Laboratory results reported in patent publication US20170119861.

Experiments:
[1] = molecular target: synthetic Aβ40 peptide, P05067
[2] = molecular target: Aβ40 high molecular weight fibrils, P05067
[3] = molecular target: synthetic Aβ42 peptide, P05067
synthetic Aβ42 peptide, P05067, sequence (P05067 whole entry, looked up, tested part not stated): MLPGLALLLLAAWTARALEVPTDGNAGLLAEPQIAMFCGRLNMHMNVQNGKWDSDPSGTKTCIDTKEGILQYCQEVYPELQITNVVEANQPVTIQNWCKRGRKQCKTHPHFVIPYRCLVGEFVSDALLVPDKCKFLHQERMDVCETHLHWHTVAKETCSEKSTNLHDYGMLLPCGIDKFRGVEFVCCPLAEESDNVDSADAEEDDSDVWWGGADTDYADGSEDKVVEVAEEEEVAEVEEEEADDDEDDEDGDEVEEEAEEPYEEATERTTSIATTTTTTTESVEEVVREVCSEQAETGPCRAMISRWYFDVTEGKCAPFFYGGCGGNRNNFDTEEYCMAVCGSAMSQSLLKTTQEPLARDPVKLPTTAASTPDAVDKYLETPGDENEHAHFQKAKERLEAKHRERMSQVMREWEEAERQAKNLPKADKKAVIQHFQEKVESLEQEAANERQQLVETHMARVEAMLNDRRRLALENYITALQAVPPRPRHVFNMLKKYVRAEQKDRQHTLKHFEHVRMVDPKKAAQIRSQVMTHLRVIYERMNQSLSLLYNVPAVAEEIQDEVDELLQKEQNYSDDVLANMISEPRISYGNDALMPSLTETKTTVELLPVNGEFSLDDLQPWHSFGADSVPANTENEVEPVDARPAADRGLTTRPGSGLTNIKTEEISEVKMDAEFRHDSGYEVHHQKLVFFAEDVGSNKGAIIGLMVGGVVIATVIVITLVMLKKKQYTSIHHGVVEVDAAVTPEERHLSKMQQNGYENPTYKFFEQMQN

synthetic Aβ40 peptide, P05067, sequence (P05067 whole entry, looked up, tested part not stated): as above
Aβ42 fibrils, P05067, sequence (P05067 whole entry, looked up): as the sequence (P05067 whole entry, looked up, tested part not stated) above
Aβ42 oligomers, P05067, sequence (P05067 whole entry, looked up): as the sequence (P05067 whole entry, looked up, tested part not stated) above
Aβ40 high molecular weight fibrils, P05067, sequence (P05067 whole entry, looked up): as the sequence (P05067 whole entry, looked up, tested part not stated) above

B1: protective protein/cathepsin A (PPCA) (protein)
chain: APDQDEIQRLPGLAKQPSFRQYSGYLKGSGSKHLHYWFVESQKDPENSPVVLWLNGGPGCSSLDGLLTEHGPFLVQPDGVTLEYNPYSWNLIANVLYLESPAGVGFSYSDDKFYATNDTEVAQSNFEALQDFFRLFPEYKNNKLFLTGESYAGIYIPTLAVLVMQDPSMNLQGLAVGNGLSSYEQNDNSLVYFAYYHGLLGNRLWSSLQTHCCSQNKCNFYDNKDLECVTNLQEVARIVGNSGLNIYNLYAPCAGGVPSHFRYEKDTVVVQDLGNIFTRLPLKRMWHQALLRSGDKVRMDPPCTNTTAASTYLNNPYVRKALNIPEQLPQWDMCNFLVNLQYRRLYRSMNSQYLKLLSSQKYQILLYNGDVDMACNFMGDEWFVDSLNQKMEVQRRPWLVKYGDSGEQIAGFVKEFSHIAFLTIKGAGHMVPTDKPLAAFTMFSRFLNKQPY
B1 was tested, and the “ELISA with C-terminal capture antibody after 2 h incubation of Aβ40 with varying Cath A concentrations” value [1] was “progressively reduced binding of Aβ40 peptide to C-terminal capture antibody with increasing concentration of Cath A”, the “THT aggregation of Aβ40 after pre-incubation with Cath A for up to two hours” value [1] was “Aβ40 peptide did not aggregate after pre-incubation with Cath A” and the “THT aggregation of Aβ40 with simultaneous incubation with Cath A” value [1] was “aggregation of Aβ40 amyloid is not affected by Cath A, in applied experimental settings, even when high concentration of enzyme is used”. The “western blot (E610) of day 9 Aβ42 fibrils after overnight treatment with 90 ng enzyme” value (Aβ42 fibrils, P05067) was “resulted in reduction/degradation of the fibril smear as well as degradation of oligomer species (line 4 compared to line 1)”, the “western blot (A11) of day 9 Aβ42 oligomers after overnight treatment with 90 ng enzyme” value (Aβ42 oligomers, P05067) was “resulted in degradation of the lowest oligomer band (line 4)” and the “western blot of Aβ40 co-incubated with Cath A for up to 9 days during fibril formation” value [2] was “Cath A significantly prevents formation of high molecular weight fibrils”. The “Aβ42 aggregation by THT assay and western blot” value [3] was “PPCA can efficiently prevent formation of Aβ42 amyloid species” and the “human Aβ42 specific ELISA signal after treatment with 90 ng cathepsin A (0-120 min, 37° C., pH 5.0)” value [3] was “a loss of fluorescent signal already within first 10 min of treatment”.
